Measured values reported in publication PMC8891067.

B1: bCerS (CCNA_01212) (Caulobacter vibrioides NA1000) (protein)
chain: MPFDSTNADLSVIPVKTPAELKRFIALPARLNAKDPNWITPLFMERTDALTPKTNPFFDHAEVQLFLATRGGRDVGRISAQIDQLTPQPTEGRLDGHFGMIAAEDDPAVFNVLFRAAEDWLRARGRTHAVGPFNLSINEEVGLLVWGFDTPPMVLMGHDPVYAGPRVEEQGYAKAQDLFAYKADETGDIPEIAQRRVKRGLPSGVVLRQLDMSRYDQEVQTLTEILNDAWSDNWGFTPTTEAETRQLAKSLKQVIDQRLVWFSEIDGEAAGVVVFLPNVNEAIADLKGKLLPFGWAKLLWRLKVKGVKSARIPLMGVKKKFQTSQRGRMLPFWMMKASRDMAMSLGYNRYEISWVLEANKAMTHIAENVGGTHYKTYRVYEKAL
B2: Spt (CCNA_01220) (Caulobacter vibrioides NA1000) (protein)
chain: MGLFDKHLAYRDAYKAIQDVGANPFKVRFDAVHSPTEGVVDGRPTILLGTNNYLGLTFDEQAIAASVKAVQERGTGTTGSRIANGSFESHVELEQELAKFYGRKHAMVFTTGYQANLGVLSTLVGRGDHLILDADSHASIYDGSRLGHAEVIRFRHNDPEDLAKRLRRLGDAPGERLIVVEGIYSMIGDVAPLKEIAAVKREMGGYLLVDEAHSMGVLGATGRGLAEAAGVEEDVDFIVGTFSKSLGAIGGFCVSDHDDFDVMRVICRPYMFTASLPPAVAASTVTALRRMIEQPELRDRLNRNAKRLYDGLTAMGFLTGPSASPIVAATMPDQERAIAMWNGLLQAGVYLNLALPPATPDSRPLLRASVSAAHTDEQIDAVLKTYGEIGAALGVIEPLKRARA

Experiments:
purified protein [1] = substrate: CCCCCCCCCCCCCCCC(=O)SCCNC(=O)CCNC(=O)[C@H](O)C(C)(C)COP(=O)(O)OP(=O)(O)OC[C@H]1O[C@@H](n2cnc3c(N)ncnc32)[C@H](O)[C@@H]1OP(=O)(O)O; experiment: purified protein; assay type: biochemical, Caulobacter vibrioides; conditions: 100 mM HEPES
purified protein [2] = substrate: N[C@@H](CO)C(=O)O; experiment: purified protein; assay type: biochemical, Caulobacter vibrioides; conditions: 250 μM C16:0-CoA, 100 mM HEPES, 250 mM NaCl, pH 7.0, 30 °C

Protein	Km (purified protein [1]; with 3-KDS (40 μM), 150 mM NaCl, pH 7.5, 30 °C)	Km (purified protein [1]; 20 mM L-serine, 250 mM NaCl, pH 7.0, 30 °C)	Km (purified protein [2])
B1	21.3 ± 4.1 µM		
B2		110.40 ± 13.37 µM	2980 ± 250 µM
